One assay addresses NEDD8 (UniProt Q15843 1-76). The experiment in a line: NMR titration.
In a further assay the target is ubiquitin (UniProt P0CG48 1-76). Kind of assay: NMR titration.

Broadly, the Kd is the free concentration of one partner at which half of the binding sites on the other are occupied at equilibrium, for simple one-to-one binding. Higher therefore signals a looser complex. For AAEDQVPCEKCGSLVPVWDMPEHMDYHFALELQKS (domain or fragment) [UBZ domain of Pol η (amino acids 628–662)], the dissociation constant Kd with NEDD8 came to 671 ± 153 µM; with ubiquitin it was 159 ± 9.5 µM.

The record behind these values is article PMC11482926 (bioRxiv, 2024).
